Measurements as given in patent US20060240002A1, “Methods of inhibiting angiogenesis-dependent conditions mediated by cryptic epitopes of extracellular matrix components” (priority 2005, published 2006).
One block for each substance: values may come before it.

How the values were obtained:
[1] = molecular target: denatured collagen type-IV; assay: cell-based or functional assay
[2] = molecular target: αvβ3 integrin (human) (UniProt P06756); assay: cell-based or functional assay
[3] = system: B16F10 tumor cells; assay: Differential cDNA array analysis of B16F10 tumor cells treated with peptides (Example X); format: cell-based, murine; details: 12 hours, Example X written in present tense
Description: To evaluate the effect of inhibiting the HUIV26 cryptic collagen epitope using the SLK- and CLK-Peptides, an Affymetrix™-based differential cDNA array analysis is performed using B16F10 tumor cells treated or not treated with SLK- or CLK-peptide. Non-tissue culture treated dishes are coated overnight with 100 μg/ml of denatured collagen IV in PBS. The next morning the plates are washed and incubated in blocking solution (1% BSA in PBS) for approximately 30 minutes. Tumor cells (7×10^6) are resuspended in serum free media and added to each plate in the presence or absence of CLK-Peptide, SLK-Peptide or a control peptide. The cells are allowed to incubate for a total of 12 hours.
Following the 12-hour incubation period, the cells are harvested and the RNA is isolated using both a TRIzol reagent and the Qiagen Rneasy Mini Protocol for RNA Cleanup. After RNA extraction, the amount and quality of RNA is quantified utilizing a spectrophotomer. 5-8 μg of total RNA is utilized to synthesize double-stranded cDNA. The first cDNA strand is obtained using a reaction mixture containing a T7-(dT)24 Primer, 1× First Strand Buffer, 0.1M DTT and 10 mM dNTP mix in addition to the extracted RNA. The tubes are incubated at 42° C. for approximately 1.5 hours. […]

[4] = system: P27^KIP1; assay: Western blot of P27^KIP1 in B16F10 melanoma cells on denatured collagen; format: cell-based, murine; details: 24 hours
Description: (§1) To examine the effect of CLK-peptide on the expression of cyclin-dependent […] P27^KIP1, B16F10 melanoma and GL261 glioblastoma cells were resuspended in adhesion buffer in the presence or absence of CLK-peptide or control peptide. Cells were added to culture plates coated with denatured collagen and allowed to incubate for 24 hours. Total cell lysates were prepared and the proteins analyzed by Western Blot analysis.

[5] = system: B16F10 tumor cells; assay: Real time quantitative RT-PCR of B16F10 cells treated with peptides (Example X); format: cell-based, murine; details: vs control peptide, Example X written in present tense
Description: Relative expression levels of genes are assessed by both real time quantitative RT-PCR and Western Blot analysis. Tumor cells (B16F10) are allowed to interact with denatured collagen type-IV in the presence or absence of the SLK-peptide, CLK-peptide, or control peptide. Whole cell lysates are prepared from the various cell samples.
Real Time quantitative RT-PCR is carried out essentially as described with some modifications (Livak et al., Method 2001, 25:402-408). Total RNA is isolated using RNeasy miniprep columns (Qiagen, Valencia Calif.) according to the manufacturer's instructions. Total RNA (1 μg) is reverse transcribed using 1× Reverse Transcriptase Buffer, MgCl2 (3 mM), dNTP (2.0 mM), RNAse inhibitor (0.2 U/μl), random hexamer primers (0.5 mM), and MMLV reverse transcriptase (0.3 U/μl) in 20 μl reactions using a 3-step cycle (Promega, Madison, Wis.). Real-time fluorescence detection is carried out using an ABI Prism 7900 Sequence Detection System. Reactions are carried out in microAmp 96 well reaction plates. Primers and probes are designed using Primer 3 version 2 and ENSEMBL software (Promega).

[6] = system: B16F10 tumor cells; assay: Western blot of B16F10 cells treated with peptides (Example X); format: cell-based, murine; details: B16F10 cells on denatured collagen type-IV; vs no treatment or control peptide; Example X written in present tense
Description: Western blot analyses indicate a corresponding increase in protein levels. Western blotting was performed as previously described, by coating non-tissue culture treated plates with denatured collagen type-IV (10.0 μg/ml). Equal numbers of tumor cells (B16F10) from sub-confluent cultures are harvested, washed and added to the coated plates in the presence or absence of SLK-peptide, CLK-peptide, or control peptide, and allowed to incubate in 1.0% serum-containing medium. Cells are harvested, washed, and lysed in 1.0% Triton X-100 buffer containing 300 mM NaCl, 50 mM Tris (pH 7.0) and 1× protease inhibitor cocktail. Equal amounts (25 μg/lane) of tumor cell lysates are separated by SDS Page and transferred to nitrocellulose membranes. Membranes are probed by incubation with either polyclonal antibodies directed to P21^CIP1 or Actin (Santa Cruz) as described previously (Brooks et al., Cell 1998, 92: 391-400; Petitclerc et al., Cancer Res. 1999, 59: 2724-2730). Western blots are visualized by a chemiluminesence detection system (Amersham Life Sciences).

[7] = system: P27^KIP1; assay: Western blot of P27^KIP1 in GL261 glioblastoma cells on denatured collagen; format: cell-based; details: 24 hours
Description: as §1

[8] = system: P21^CIP1; assay: Western blot of P21^CIP1 in M21 cells; format: cell-based, human; details: 12 hours, 1% serum-containing medium
Description: The effect of CLK-peptide on the expression of P21^CIP1 was examined by Western Blot analysis. M21 cells were resuspended in adhesion buffer in the presence or absence of CLK-peptide and allowed to incubate for 12 hours in 1% serum-containing medium. Total cell lysates were prepared and the levels of P21^CIP1 and actin analyzed by Western Blot analysis.

Chain of UniProt P06756 (P06756 31-1048, chain 1 of 2): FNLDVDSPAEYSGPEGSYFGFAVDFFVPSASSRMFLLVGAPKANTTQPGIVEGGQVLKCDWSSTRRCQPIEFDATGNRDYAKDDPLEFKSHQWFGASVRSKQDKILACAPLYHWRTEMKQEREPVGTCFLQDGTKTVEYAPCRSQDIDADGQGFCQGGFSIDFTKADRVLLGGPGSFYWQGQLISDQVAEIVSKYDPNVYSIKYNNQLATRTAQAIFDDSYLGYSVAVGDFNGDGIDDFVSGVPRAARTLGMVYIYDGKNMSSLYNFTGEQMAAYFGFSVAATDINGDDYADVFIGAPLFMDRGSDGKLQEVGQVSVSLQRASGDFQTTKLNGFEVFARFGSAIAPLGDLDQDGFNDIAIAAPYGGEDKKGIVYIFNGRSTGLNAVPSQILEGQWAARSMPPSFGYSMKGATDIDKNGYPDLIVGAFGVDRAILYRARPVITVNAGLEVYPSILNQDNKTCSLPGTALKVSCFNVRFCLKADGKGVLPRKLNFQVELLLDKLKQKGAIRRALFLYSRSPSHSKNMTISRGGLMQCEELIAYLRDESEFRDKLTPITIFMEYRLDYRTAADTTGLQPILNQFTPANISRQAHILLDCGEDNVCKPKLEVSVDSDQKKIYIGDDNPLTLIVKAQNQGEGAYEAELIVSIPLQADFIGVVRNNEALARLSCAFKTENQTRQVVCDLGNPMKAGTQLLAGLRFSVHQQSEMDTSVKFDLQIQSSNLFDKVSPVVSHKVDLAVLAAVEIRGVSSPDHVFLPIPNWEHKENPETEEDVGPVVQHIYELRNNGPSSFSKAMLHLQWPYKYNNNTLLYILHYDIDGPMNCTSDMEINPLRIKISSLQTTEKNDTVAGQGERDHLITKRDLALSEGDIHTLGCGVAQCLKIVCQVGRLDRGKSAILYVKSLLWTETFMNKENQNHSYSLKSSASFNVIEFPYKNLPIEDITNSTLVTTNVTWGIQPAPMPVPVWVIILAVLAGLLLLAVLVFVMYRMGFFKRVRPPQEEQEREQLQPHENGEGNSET
Chain of UniProt P06756 (P05106 27-788, chain 2 of 2, further chain): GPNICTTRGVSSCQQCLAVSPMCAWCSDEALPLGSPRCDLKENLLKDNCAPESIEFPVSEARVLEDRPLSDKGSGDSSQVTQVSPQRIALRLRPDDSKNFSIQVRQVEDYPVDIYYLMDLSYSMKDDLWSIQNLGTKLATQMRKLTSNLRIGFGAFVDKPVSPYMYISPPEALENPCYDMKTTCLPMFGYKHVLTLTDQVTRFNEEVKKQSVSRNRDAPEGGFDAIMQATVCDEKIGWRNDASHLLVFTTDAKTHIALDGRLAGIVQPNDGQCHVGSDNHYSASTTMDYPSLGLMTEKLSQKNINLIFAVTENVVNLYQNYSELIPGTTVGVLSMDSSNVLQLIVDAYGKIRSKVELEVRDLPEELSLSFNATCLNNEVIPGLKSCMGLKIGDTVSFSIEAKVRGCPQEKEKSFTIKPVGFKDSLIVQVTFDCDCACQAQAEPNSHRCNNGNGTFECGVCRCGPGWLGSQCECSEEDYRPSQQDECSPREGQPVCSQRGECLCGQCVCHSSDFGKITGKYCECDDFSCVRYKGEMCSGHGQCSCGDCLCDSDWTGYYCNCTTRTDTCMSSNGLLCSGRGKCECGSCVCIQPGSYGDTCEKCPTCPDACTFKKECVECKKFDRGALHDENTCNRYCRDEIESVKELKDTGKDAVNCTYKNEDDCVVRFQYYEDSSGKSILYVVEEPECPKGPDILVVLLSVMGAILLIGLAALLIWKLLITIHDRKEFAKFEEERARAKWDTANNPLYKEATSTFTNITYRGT

- TSP-1 mRNA levels in HUVECs (real-time PCR) [1]: 6 fold
- adhesion of B16F10 cells to denatured collagen type-IV [1]: 50 % inhibition
- expression of P21^CIP1 protein in B16F10 cells (Western blot) [1]: 2 fold
- migration of B16F10 tumor cells on denatured collagen type-IV [1]: 50 % inhibition
- relative level of P21^CIP1 mRNA in B16F10 cells (real time RT-PCR) [1]: 2.3 fold
- relative levels of IGFBP-4 RNA in M21 cells (RT-PCR) [1]: 115 fold
- relative levels of IGFBP-4 mRNA in HUVECs (RT-PCR) [1]: > 10 fold
- relative levels of Id-1 in M21 cells (real-time PCR) (fold decrease) [1]: 2
- relative levels of TSP-1 RNA in M21 cells (real-time PCR) [1]: 7 fold
Substance: Mab HUIV26 (antibody)

- relative level of TSP-1 in M21 cells on denatured collagen type-IV (real-time PCR) [2]: 8 fold
Substance: Mab LM609 (antibody)

Substance: NH2—C-L-K-Q-N-G-G-N—F—S-L-G-COOH (H-CLKQNGGNFSLG-OH) [CLK-peptide]
- expression of certain genes (cDNA array) [3]: significant increase
- expression of P27^KIP1 (Western blot) [4]: significant upregulation
- relative levels of certain RNAs (RT-PCR) [5]: significant increase in the relative levels of certain RNAs and significant decrease in other RNAs
- expression of certain proteins (Western blot) [6]: significant increase in expression of certain proteins and a significant decrease in expression of other proteins
- expression of P27^KIP1 (Western blot) [7]: significant upregulation
- expression of P21^CIP1 (Western blot) [8]: significant upregulation

Substance: NH2—S-L-K-Q-N-G-G-N—F—S-L-C—COOH (H-SLKQNGGNFSLC-OH) [SLK-peptide]
- expression of certain genes (cDNA array) [3]: significant increase
- relative levels of certain RNAs (RT-PCR) [5]: significant increase in the relative levels of certain RNAs and significant decrease in other RNAs
- expression of certain proteins (Western blot) [6]: significant increase in expression of certain proteins and a significant decrease in expression of other proteins

- relative level of P21^CIP1 mRNA in HUVECs (real time RT-PCR) [1]: 10 fold
- relative level of P27^KIP1 mRNA in HUVECs (real time RT-PCR) [1]: > 5 fold
Substance: Mab HUI77 (antibody)
